Read-outs that look alike come from different tables or passages of the source.
B2: CCL8_HUMAN (ligand, UniProt P80075 24-99, looked up)
chain: QPDSVSIPITCCFNVINRKIPIQRLESYTRITNIQCPKEAVIFKTKRGKEVCADPKERWVRDSMKHLDQIFQNLKP
B4: P1243_AMBAM (other)
chain: RNHTEDNSTEYYDYEEARCACPARHLNNTNGTVLKLLGCHYFCNGTLCTAPDGYPCYNLTAQQVRTLTTYPNTSCAVGVCMKGTCVKNGTMEQCFKTP

Key:
CCL11_HUMAN = CCL11_HUMAN (human, UniProt P51671 24-97); test: yeast surface display FACS
CCL5_HUMAN [1] = biological target: T1, CCL5_HUMAN (human, UniProt P13501 24-91); test: yeast surface display FACS
T1 sequence: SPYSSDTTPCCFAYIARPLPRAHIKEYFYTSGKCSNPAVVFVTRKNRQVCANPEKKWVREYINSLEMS

CCL20_HUMAN = CCL20_HUMAN (human, UniProt P78556 27-96); test: yeast surface display FACS
CXCL12_HUMAN = CXCL12_HUMAN (human, UniProt P48061 22-89); test: yeast surface display FACS
CCL3_HUMAN = biological target: T2, CCL3_HUMAN (human, UniProt P10147 24-92); test: yeast surface display FACS
T2 sequence: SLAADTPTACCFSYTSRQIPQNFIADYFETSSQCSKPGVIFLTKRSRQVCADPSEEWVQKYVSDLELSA

CCL8_HUMAN = biological target: B2; test: yeast surface display FACS
CCL17_HUMAN = biological target: T3, CCL17_HUMAN (human, UniProt Q92583 24-94); test: yeast surface display FACS
T3 sequence: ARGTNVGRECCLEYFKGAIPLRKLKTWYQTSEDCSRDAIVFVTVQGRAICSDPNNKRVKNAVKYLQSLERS

EVA1_RHISA = biological target: T4, EVA1_RHISA (Rhipicephalus sanguineus, UniProt P0C8E7 21-114); test: BLI
T4 construct: also called Evasin-1
T4 sequence: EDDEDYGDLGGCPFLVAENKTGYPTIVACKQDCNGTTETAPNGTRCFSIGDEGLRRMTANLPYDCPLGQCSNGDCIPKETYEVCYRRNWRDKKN

P1182_AMBMA = biological target: T5, P1182_AMBMA (Amblyomma maculatum, UniProt G3MJ83 27-115); test: BLI
T5 sequence: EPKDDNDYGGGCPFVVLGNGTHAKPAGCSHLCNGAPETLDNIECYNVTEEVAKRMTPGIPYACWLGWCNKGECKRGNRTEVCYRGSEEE

P1181_AMBMA = biological target: T6, P1181_AMBMA (Amblyomma maculatum, UniProt G3MIX6 26-115); test: BLI
T6 sequence: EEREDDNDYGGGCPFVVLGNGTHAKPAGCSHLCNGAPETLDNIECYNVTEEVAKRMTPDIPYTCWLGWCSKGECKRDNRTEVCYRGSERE

P983_AMBCA = biological target: T7, P983_AMBCA (Amblyomma cajennense, UniProt A0A023FFB5 22-119); test: BLI
T7 sequence: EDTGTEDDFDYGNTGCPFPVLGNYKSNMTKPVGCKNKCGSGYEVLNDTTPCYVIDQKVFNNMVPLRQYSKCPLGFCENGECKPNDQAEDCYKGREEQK

P974_AMBCA = biological target: T8, P974_AMBCA (Amblyomma cajennense, UniProt A0A023FDY8 22-118); test: BLI
T8 sequence: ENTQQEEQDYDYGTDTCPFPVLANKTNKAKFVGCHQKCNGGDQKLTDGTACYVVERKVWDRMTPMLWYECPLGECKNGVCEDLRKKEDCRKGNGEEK

P1183_AMBTR = biological target: T9, P1183_AMBTR (Amblyomma triste, UniProt A0A023G9N9 26-115); test: BLI
T9 sequence: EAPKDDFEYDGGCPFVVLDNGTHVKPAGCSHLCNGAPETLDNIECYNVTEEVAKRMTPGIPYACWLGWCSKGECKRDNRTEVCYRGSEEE

P672_RHIPU = biological target: T10, P672_RHIPU (Rhipicephalus pulchellus, UniProt L7MC74 22-125); test: BLI
T10 sequence: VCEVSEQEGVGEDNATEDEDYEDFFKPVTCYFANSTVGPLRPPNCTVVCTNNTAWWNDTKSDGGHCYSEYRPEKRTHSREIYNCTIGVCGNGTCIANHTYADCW

P546_AMBCA = biological target: T11, P546_AMBCA (Amblyomma cajennense, UniProt A0A023FBW7 22-118); test: BLI
T11 sequence: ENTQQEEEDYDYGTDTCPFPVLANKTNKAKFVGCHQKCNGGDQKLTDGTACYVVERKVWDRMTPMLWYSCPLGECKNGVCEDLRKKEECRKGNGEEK

P1243_AMBAM = biological target: B4; test: BLI
P1180_AMBTR = biological target: T12, P1180_AMBTR (Amblyomma triste, UniProt A0A023G6B6 26-116); test: BLI
T12 sequence: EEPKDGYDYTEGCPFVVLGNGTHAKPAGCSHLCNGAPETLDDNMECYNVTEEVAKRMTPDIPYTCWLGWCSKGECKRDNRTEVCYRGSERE

P467_RHIPU = biological target: T13, P467_RHIPU (Rhipicephalus pulchellus, UniProt L7M8Z8 22-127); test: BLI
T13 sequence: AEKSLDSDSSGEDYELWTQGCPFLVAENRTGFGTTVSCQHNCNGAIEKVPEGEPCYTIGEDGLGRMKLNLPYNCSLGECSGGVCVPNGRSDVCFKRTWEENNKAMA

P991_AMBCA = biological target: T14, P991_AMBCA (Amblyomma cajennense, UniProt A0A023FFD0 29-136); test: BLI
T14 sequence: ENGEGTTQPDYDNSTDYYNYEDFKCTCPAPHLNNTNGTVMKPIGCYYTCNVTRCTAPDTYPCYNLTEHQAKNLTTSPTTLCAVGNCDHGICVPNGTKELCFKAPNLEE

P985_AMBPA = biological target: T15, P985_AMBPA (Amblyomma parvum, UniProt A0A023FT45 25-132); test: BLI
T15 sequence: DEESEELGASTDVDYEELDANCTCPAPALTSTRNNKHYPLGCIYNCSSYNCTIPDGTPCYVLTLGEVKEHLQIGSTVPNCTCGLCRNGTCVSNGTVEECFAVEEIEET

P1170_IXORI = biological target: T16, P1170_IXORI (Ixodes ricinus, UniProt A0A0K8RD51 29-102); test: BLI
T16 sequence: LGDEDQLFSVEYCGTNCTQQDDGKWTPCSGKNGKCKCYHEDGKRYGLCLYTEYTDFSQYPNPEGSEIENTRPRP

P1229_IXORI = biological target: T17, P1229_IXORI (Ixodes ricinus, UniProt A0A0K8R4R9 32-108); test: BLI
T17 sequence: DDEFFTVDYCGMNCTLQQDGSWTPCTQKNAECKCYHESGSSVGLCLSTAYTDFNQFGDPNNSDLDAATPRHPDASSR

P1166_IXORI = biological target: T18, P1166_IXORI (Ixodes ricinus, UniProt A0A0K8RE99 25-110); test: BLI
T18 sequence: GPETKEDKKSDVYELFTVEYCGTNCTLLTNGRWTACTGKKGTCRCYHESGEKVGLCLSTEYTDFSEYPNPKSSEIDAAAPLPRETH

P1096_IXORI = biological target: T19, P1096_IXORI (Ixodes ricinus, UniProt A0A0K8RKE4 24-114); test: BLI
T19 sequence: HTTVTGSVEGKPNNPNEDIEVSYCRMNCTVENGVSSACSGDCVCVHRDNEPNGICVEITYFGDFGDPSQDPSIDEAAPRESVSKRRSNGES

P1095_IXORI = biological target: T20, P1095_IXORI (Ixodes ricinus, UniProt A0A0K8RCE3 24-112); test: BLI
T20 sequence: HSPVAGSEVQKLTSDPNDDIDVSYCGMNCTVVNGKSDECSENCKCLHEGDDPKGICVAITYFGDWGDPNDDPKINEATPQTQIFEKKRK

P1174_IXORI = biological target: T21, P1174_IXORI (Ixodes ricinus, UniProt V5I3C5 28-104); test: BLI
T21 sequence: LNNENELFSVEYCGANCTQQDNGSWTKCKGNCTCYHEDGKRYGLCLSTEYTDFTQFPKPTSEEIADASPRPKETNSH

P1127_IXORI = biological target: T22, P1127_IXORI (Ixodes ricinus, UniProt A0A0K8RJ67 29-108); test: BLI
T22 sequence: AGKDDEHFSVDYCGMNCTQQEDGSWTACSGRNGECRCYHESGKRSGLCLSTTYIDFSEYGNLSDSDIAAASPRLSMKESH

P1156_IXORI = biological target: T23, P1156_IXORI (Ixodes ricinus, UniProt V5HBW0 29-108); test: BLI
T23 sequence: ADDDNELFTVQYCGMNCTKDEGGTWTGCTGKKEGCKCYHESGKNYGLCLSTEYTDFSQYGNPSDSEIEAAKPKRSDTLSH

P1132_IXORI = biological target: T24, P1132_IXORI (Ixodes ricinus, UniProt V5GZ08 29-106); test: BLI
T24 sequence: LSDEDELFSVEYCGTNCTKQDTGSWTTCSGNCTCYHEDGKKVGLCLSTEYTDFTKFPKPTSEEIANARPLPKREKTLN

P1134_IXORI = biological target: T25, P1134_IXORI (Ixodes ricinus, UniProt A0A0K8RAI0 32-135); test: BLI
T25 sequence: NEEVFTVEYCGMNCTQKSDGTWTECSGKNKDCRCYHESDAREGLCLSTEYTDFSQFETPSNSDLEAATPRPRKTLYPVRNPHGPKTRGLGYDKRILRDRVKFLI

P1168_IXORI = biological target: T26, P1168_IXORI (Ixodes ricinus, UniProt A0A0K8RCU3 25-106); test: BLI
T26 sequence: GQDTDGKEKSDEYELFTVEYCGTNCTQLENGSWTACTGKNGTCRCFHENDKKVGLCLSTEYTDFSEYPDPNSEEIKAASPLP

CCL23_HUMAN [2] = biological target: T27, CCL23_HUMAN (human, UniProt P55773 22-120); test: BLI
T27 sequence: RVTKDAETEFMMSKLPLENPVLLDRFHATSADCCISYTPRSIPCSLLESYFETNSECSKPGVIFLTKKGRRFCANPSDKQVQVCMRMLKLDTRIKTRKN

CCL21_HUMAN [3] = biological target: T28, CCL21_HUMAN (human, UniProt O00585 24-134); test: BLI
T28 sequence: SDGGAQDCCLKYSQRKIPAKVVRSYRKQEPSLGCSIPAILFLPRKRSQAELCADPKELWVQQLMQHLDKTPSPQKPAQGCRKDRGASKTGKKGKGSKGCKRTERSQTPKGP

CCL5_HUMAN [4] = biological target: T1, CCL5_HUMAN; test: cell-based or functional assay
CCL23_HUMAN [5] = biological target: T27, CCL23_HUMAN; test: BLI; remark: listed apart in the source
CCL21_HUMAN [6] = biological target: T28, CCL21_HUMAN; test: BLI; remark: listed apart in the source

Chain of CXCL12_HUMAN (P48061 22-89 limits assumed): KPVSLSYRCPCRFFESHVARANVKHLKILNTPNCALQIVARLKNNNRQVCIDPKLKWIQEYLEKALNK
Chain of CCL11_HUMAN (P51671 24-97 limits assumed): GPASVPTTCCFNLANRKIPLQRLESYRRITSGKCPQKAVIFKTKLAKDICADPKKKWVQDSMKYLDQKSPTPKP
Chain of CCL20_HUMAN (P78556 27-96 limits assumed): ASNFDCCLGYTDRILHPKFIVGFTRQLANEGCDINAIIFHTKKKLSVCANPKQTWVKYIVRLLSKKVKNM

B1: P1030_AMBPA (other)
chain: GPPSIPGNESIPGCGDAGTTTAPEDNPKHYGTLTDKKGCTLPIIGTWMTAVDHQHLQGTRGERRGPTGKVNLPASCRKNCHGRQEILRDGIPCRKVVGNPKGSKKHLKSGCLRGKCLAGQCVNDGRRISCYVPRNITDTEPTPGLLAE
- binding result (CCL11_HUMAN): binds
- binding result (CCL5_HUMAN [1]): binds
- binding result (CCL20_HUMAN): binds
- binding result (CXCL12_HUMAN): binds
- binding result (CCL3_HUMAN): binds
- binding result (CCL8_HUMAN): binds
- binding result (CCL17_HUMAN): binds

Binder: B2
- binding result (EVA1_RHISA): no binding (tested: 600 nM)
- Kd (P1182_AMBMA): 29 nM
- Kd (P1181_AMBMA): 14 nM
- Kd (P983_AMBCA): 7 nM
- Kd (P974_AMBCA): 2.58 nM
- Kd (P1183_AMBTR): 1100 nM
- Kd (P672_RHIPU): 3.7 nM
- Kd (P546_AMBCA): 1.3 nM
- Kd (P1243_AMBAM): 21.9 nM
- Kd (P1180_AMBTR): 3.6 nM
- Kd (P467_RHIPU): 2.85 nM
- Kd (P991_AMBCA): 8.79 nM
- Kd (P985_AMBPA): 6.5 nM

B3: CXCL11_HUMAN (ligand)
chain: FPMFKRGRCLCIGPGVKAVKVADIEKASIMYPSNNCDKIEVIITLKENKGQRCLNPKSKQARLIIKKVERKNF
- binding result (P1170_IXORI): no binding (tested: 300 nM)
- binding result (P1229_IXORI): no binding (tested: 300 nM)
- binding result (P1166_IXORI): no binding (tested: 300 nM)
- binding result (P1096_IXORI): no binding (tested: 300 nM)
- binding result (P1095_IXORI): no binding (tested: 300 nM)
- binding result (P1174_IXORI): no binding (tested: 300 nM)
- binding result (P1127_IXORI): no binding (tested: 300 nM)
- binding result (P1156_IXORI): no binding (tested: 300 nM)
- binding result (P1132_IXORI): no binding (tested: 300 nM)
- binding result (P1134_IXORI): no binding (tested: 300 nM)
- binding result (P1168_IXORI): no binding (tested: 300 nM)

Binder: B4
- Kd (CCL23_HUMAN [2]): 6.62 nM
- Kd (CCL21_HUMAN [3]): 6.54 nM
- IC50, THP1 cell migration (CCL5_HUMAN [4]): 7.87 nM
- Kd (CCL23_HUMAN [5]): 6.62 nM
- Kd (CCL21_HUMAN [6]): 6.54 nM

Source: patent US20240034757A1 (OXFORD UNIVERSITY INNOVATION, published 2024)
